Test [1] has as its target T1, human CXCR2 (human, UniProt P25025 1-360).
T1 construct: Expressed on Flp-In CHO cells (FACS, Fab-ZAP, ADCC, CDC) or on bought PathHunter CHO cells (beta-arrestin assay); the construct in the PathHunter cells is not described; also called chemokine receptor CXCR2; CXCR2 CHO Flp-In cells
T1 sequence: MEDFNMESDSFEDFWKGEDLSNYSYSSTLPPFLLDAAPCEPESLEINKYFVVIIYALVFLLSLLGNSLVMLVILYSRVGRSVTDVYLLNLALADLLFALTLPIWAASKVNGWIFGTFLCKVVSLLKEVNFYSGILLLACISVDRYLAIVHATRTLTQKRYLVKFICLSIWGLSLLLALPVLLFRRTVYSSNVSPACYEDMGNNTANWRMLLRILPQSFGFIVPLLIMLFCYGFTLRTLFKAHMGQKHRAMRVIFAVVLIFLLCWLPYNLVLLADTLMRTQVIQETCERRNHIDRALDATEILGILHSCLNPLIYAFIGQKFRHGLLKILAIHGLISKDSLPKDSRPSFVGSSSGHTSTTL
Put plainly: FACS, CXCR2 Flp-In CHO cells, IgG1. The method, then:
(§1) Human CXCR2-expressing Flp-In™ CHO cells were harvested at ˜80% confluence washed once with PBS (Gibco, Cat #14190-094) and detached using Versene (Invitrogen, Cat #15040-033). Subsequently, cells were counted and centrifuged at 250×g for 5 min at 4° C. Afterwards, cells were diluted in Superblock (Thermo Fisher Perbio Science, Cat #37515) to a cell concentration of 2E+05-1E+06/mL and 100 μL/well were transferred to 96-well microtiter plate (Nunc, Cat#163320). Cells were once centrifuged, supernatant discarded and antibodies added at 1 μg/mL (unless stated otherwise), incubated for 1 h at 4° C. and washed twice with FACS buffer (PBS/3% FCS/0.02% NaN3). Binding of anti-CXCR2 antibodies was detected by incubation of Phycoerythrin-conjugated anti-human IgG (Dianova, Cat #109-116-097) for 1 h at 4° C. Samples were subsequently measured using FACS Array (Becton Dickinson).
All six Fabs were converted into IgG1 format and were expressed in a human cell line and purified via protein A chromatography for further analysis. All antibodies were tested for specific CXCR2 binding on CXCR2-expressing CHO Flp-In™ cells by FACS. Additionally, inhibition of CXCR2 mediated beta-arrestin signaling by the antibodies was analyzed. Furthermore, IC₅₀ concentrations for cytotoxicity of respective antibodies via secondary immunotoxin in a Fab-ZAP assay using CXCR2 expressing CHO Flp-In™ cells were determined together with the capability of the antibodies to induce complement-dependent cellular cytotoxicity (CDC) and antibody-dependent cellular toxicity (ADCC). Respective experimental settings as outlined in Example 3 were used (data of one representative experiment are shown).

Test [2] deals with T2, hu_CXCR2_N-term (1-17)-BSA (human; bovine, coupled to carrier protein BSA; C-terminal cysteine introduced to enable coupling).
T2 construct: Synthetic linear peptide chemically coupled to the carrier; also called CXCR2_aa1-17_BSA; CXCR2 aa1-17 BSA
T2 sequence (P02769 25-607 limits assumed): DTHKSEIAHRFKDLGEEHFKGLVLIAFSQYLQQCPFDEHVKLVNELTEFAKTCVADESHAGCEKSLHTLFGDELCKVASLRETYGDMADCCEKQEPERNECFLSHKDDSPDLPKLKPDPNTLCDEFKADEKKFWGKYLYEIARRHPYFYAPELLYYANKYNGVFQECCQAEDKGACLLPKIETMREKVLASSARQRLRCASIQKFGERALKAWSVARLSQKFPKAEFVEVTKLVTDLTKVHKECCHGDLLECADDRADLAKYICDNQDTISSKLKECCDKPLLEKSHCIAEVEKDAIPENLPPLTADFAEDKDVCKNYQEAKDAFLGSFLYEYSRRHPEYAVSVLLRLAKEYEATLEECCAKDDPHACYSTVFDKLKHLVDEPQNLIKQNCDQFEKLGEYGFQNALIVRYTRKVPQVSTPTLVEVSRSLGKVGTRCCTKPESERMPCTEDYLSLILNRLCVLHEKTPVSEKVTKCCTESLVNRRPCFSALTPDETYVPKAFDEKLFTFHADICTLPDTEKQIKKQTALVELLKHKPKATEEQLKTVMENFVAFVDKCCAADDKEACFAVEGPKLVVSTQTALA
As to the kind of experiment: ELISA, coated peptide-BSA, Fab. The method, then: (§2) 384-well Maxisorp plates (Nunc; Cat. #460518) were coated with respective CXCR2 and control peptides coupled either to BSA or Transferrin (TRF) at 1-5 μg/mL and incubated o/n at 4° C. […] After three washing steps, antibodies were added at 5-10 μg/mL and titrated in some experiments. Antibodies were incubated 1 h at room temperature and plates were subsequently washed. Binding of anti-CXCR2 antibodies was detected by using alkaline phosphatase-conjugated anti-human IgG, (Dianova, Cat #109-055-097). AttoPhos fluorescence substrate (Roche, Cat #1484281) was added according to instructions of the manufacturer and fluorescence was measured (excitation at 430 nm, emission at 535 nm) using a microplate reader.
(In general: In an ELISA, binding on a coated surface is turned into a signal by an enzyme label.)

In test [3] the target is T3, N-terminal peptide aa1-48, BSA-coupled (human; bovine, coupled to carrier protein BSA; C-terminal cysteine introduced to enable coupling).
T3 construct: also called CXCR2 aa1-48 BSA
As to the kind of experiment: ELISA, coated peptide-BSA, Fab. The method, then: as §2

The target of test [4] is T4, ECL3 peptide aa273-295, BSA-coupled (human; bovine, coupled to carrier protein BSA; C-terminal cysteine introduced to enable coupling).
T4 construct: also called CXCR2 aa273-295 BSA; peptides representing the extracellular domain 3
T4 sequence (peptide, as listed by the source limits assumed, chain 1 of 2): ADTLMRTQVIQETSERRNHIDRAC
T4 sequence (P02769 25-607 limits assumed, chain 2 of 2): as the sequence (P02769 25-607 limits assumed) above
Put plainly: ELISA, coated peptide-BSA, Fab. The method, then: as §2

Test [5] addresses T1, human CXCR2. As to the kind of experiment: FACS, CXCR2 CHO Flp-In cells, Fab. The protocol: as §1
For orientation: In flow cytometry, cells or beads pass a laser one at a time.

The record followed here is US20160060347A1 (MorphoSys, published 2016).

B1: CX2-Mab #1 (IgG1 format) (antibody, V domains shown)
VH: QVQLVQSGAEVKKPGSSVKVSCKASGGTFSSYAISWVRQAPGQGLEWMGGIIPIVGEAKYAQKFQGRVTITADESTSTAYMELSSLRSEDTAVYYCARDSSGYDGYYAFAYWGQGTQVTVSS
VL: DIVLTQPPSVSGAPGQRGTISCSGSSSNIGSSSVNWYQQLPGTAPKLLIYRNNQRPSGVPDRFSGSKSGTSASLAITGLQAEDEADYYCGATDFSANQVVFGGGTKLTVLG
notes: Fab converted into IgG1 format, expressed in a human cell line, protein A purified; also called parental
B1: the EC50 (as a rule, the midpoint of the concentration-response curve) in the test with human CXCR2 [1] stood at 0.4 nM.

B2: CX2-Mab #18 (Fab, V domains shown)
VH: EVQLLESGGGLVQPGGSLRLSCAASGFTFSRYAMSWVRQAPGKGLEWVSVISSDGGTTYYADSVKGRFTISRDNSKNTLYLQMNSLRAEDTAVYYCARIFSYALDYWGQGTLVTVSS
VL: DIVLTQPPSVSGAPGQRVTISCSGSSSNIGSYYVNWYQQLPGTAPKLLIYRNSKRPSGVPDRFSGSKSGTSASLAITGLQAEDEADYYCSSYDAHSDSVVFGGGTKLTVLG
As for B2, the binding result (in test [2]; in test [3]; in test [4]; with human CXCR2 [5]) was “binds” throughout.

B3: CX2-Mab #19 (Fab, V domains shown)
VH: EVQLVQSGAEVKKPGESLKISCKGSGYSFTSYWISWVRQMPGKGLEWMGIIDPANSYTRYSPSFQGQVTISADKSISTAYLQWSSLKASDTAMYYCARVERRPRYYGSNYYGMDVWGQGTLVTVSS
VL: DIVLTQPPSVSGAPGQRVTISCSGSSSNIGSNYVNWYQQLPGTAPKLLIYGNSNRPSGVPDRFSGSKSGTSASLAITGLQAEDEADYYCSVRDSEGRYVVFGGGTKLTVLG
With B3, the binding result (in test [2]; in test [3]; in test [4]; in the test with human CXCR2 [5]) was “binds” throughout.

B4: CX2-Mab #5 (IgG1 format) (antibody, V domains shown)
VH: EVQLLESGGGLVQPGGSLRLSCAASGFTFNSNAMSWVRQAPGKGLEWVSFISYSGSHTYYADSVKGRFTISRDNSKNTLYLQMNSLRAEDTAVYYCARYTRFLSRPAFDPWGQGTLVTVSS
VL: DIVLTQPPSVSGAPGQRVTISCTGSSSNIGAGYDVHWYQQLPGTAPKLLIYYNSKRPSGVPDRFSGSKSGTSASLAITGLQAEDEADYYCGAYDRKMNSYVFGGGTKLTVLG
notes: Fab converted into IgG1 format, expressed in a human cell line, protein A purified
In the test with human CXCR2 [1], B4 gave an EC50 of 17.7 nM.

B5: CX2-Mab #4 (IgG1 format) (antibody, V domains shown)
VH: EVQLLESGGGLVQPGGSLRLSCAASGFTFSSNGMSWVRQAPGKGLEWVSAISSSGSKTYYADSVKGRFTISRDNSKNTLYLQMNSLRAEDTAVYYCARGYGFDVWGQGTLVTVSS
VL: DIVLTQPPSVSGAPGQRVTISCSGSSSNIGVNIVNWYQQLPGTAPKLLIYSTSNRPSGVPDRFSGSKSGTSASLAITGLQAEDEADYYCATRDGISKSVVFGGGTKLTVLG
notes: as for B1
B5 had an EC50 with human CXCR2 [1] of 0.1 nM.

B6: CX2-Mab #2 (IgG1 format) (antibody, V domains shown)
VH: QVQLVQSGAEVKKPGASVKVSCKASGYTFSRYAMHWVRQAPGQGLEWMGVINPYNGNTRYAQKFQGRVTMTRDTSISTAYMELSRLRSEDTAVYYCARGSHIQAGAFDYWGQGTLVTVSS
VL: DIQMTQSPSSLSASVGDRVTITCRASQGINNRLNWYQQKPGKAPKLLIYDGSSLQSGVPSRFSGSGSGTDFTLTISSLQPEDFATYYCQQYIHFPVTFGQGTKVEIKR
notes: as for B4
B6 showed an EC50 with human CXCR2 [1] above 667 nM.

B7: CX2-Mab #12 (Fab, V domains shown)
VH: QVQLLESGGGLVQPGGSLRLSCAASGFTFSRYWMSWVRQAPGKGLEWVSVISYSGSETYYADSVKGRFTISRDNSKNTLYLQMNSLRAEDTAVYYCARGRAYGYFDPWGQGTLVTVSS
VL: DIVLTQPPSVSGAPGQRVTISCSGSSSNIGKKTVSWYQQLPGTAPKLLIYRNNQRPSGVPDRFSGSKSGTSASLAITGLQAEDEADYYCQSTDSTHRMAVFGGGTKLTVLG
For B7, the binding result (in test [2]; in test [3]; in test [4]; with human CXCR2 [5]) was “binds” each time.

B8: CX2-Mab #17 (Fab, V domains shown)
VH: EVQLLESGGGLVQPGGSLRLSCAASGFTFSSYSMSWVRQAPGKGLEWVSYISSAGSNTYYADSVKGRFTISRDNSKNTLYLQMNSLRAEDTAVYYCARGRAYGYFDYWGQGTLVTVSS
VL: DIVLTQPPSVSGAPGQRVTISCSGSSSNIGSNTVYWYQQLPGTAPKLLISSNTKRPSGVPDRFSGSKSGTSASLAITGLQAEDEADYYCQVTDFRLHHVVFGGGTKLTVLG
For B8, the binding result (in test [2]; in test [3]; in test [4]; with human CXCR2 [5]) was “binds” throughout.

B9: CX2-Mab #3 (IgG1 format) (antibody, V domains shown)
VH: EVQLLESGGGLVQPGGSLRLSCAASGFTFSSYWMSWVRQAPGKGLEWVSVISYSGSETFYADSVKGRFTISRDNSKNTLYLQMNSLRAEDTAVYYCARGRVGYAFDYWGQGTLVTVSS
VL: DIVLTQPPSVSGAPGQRVTISCSGSSSNIGVNYVNWYQQLPGTAPKLLIYSNNQRPSGVPDRFSGSKSGTSASLAITGLQAEDEADYYCQSRASGFYSVVFGGGTKLTVLG
notes: as for B1
For B9, in the test with human CXCR2 [1], a half-maximal effect (EC50) was put at 0.2 nM.

B10: CX2-Mab #6 (IgG1 format) (antibody, V domains shown)
VH: EVQLLESGGGLVQPGGSLRLSCAASGFTFSSYTMSWVRQAPGKGLEWVSAIHSSGSSTYYADSVKGRFTISRDNSKNTLYLQMNSLRAEDTAVYYCARVPAYYGFDHWGQGTLVTVSS
VL: DIELTQPPSVSVSPGQTASITCSGDSLGAFYVHWYQQKPGQAPVLVIYRTNNRPSGIPERFSGSNSGNTATLTISGTQAEDEADYYCASYASRNRVFGGGTKLTVLG
notes: as for B4
Molecule B10 gave an EC50 in the test with human CXCR2 [1] of 0.1 nM.
